In US20140072613A1, “Compositions and Methods for Treating Cutaneous Scarring” (priority 2012, published 2014):

What was measured:
Assay in all cases: biochemical
Assay type in all cases: biochemical
266 human kinases [1] = molecular target: 266 human kinases (Homo sapiens, UniProt O15530); conditions: PDK1(h); 100 μM
How it was run: (§1)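 Inhibition was judged from reduced transfer of labelled phosphate from ATP to a positively charged substrate, which was captured on a negatively charged membrane and quantified by scintillation counting against a 100% activity control.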

266 human kinases [2] = molecular target: 266 human kinases (Homo sapiens, UniProt P08922); conditions: Ros(h); 100 μM
How it was run: as §1

266 human kinases [3] = molecular target: 266 human kinases (Homo sapiens, UniProt P49761); conditions: CLK3(h); 100 μM
266 human kinases (Homo sapiens, UniProt P49761), sequence (P49761 whole entry): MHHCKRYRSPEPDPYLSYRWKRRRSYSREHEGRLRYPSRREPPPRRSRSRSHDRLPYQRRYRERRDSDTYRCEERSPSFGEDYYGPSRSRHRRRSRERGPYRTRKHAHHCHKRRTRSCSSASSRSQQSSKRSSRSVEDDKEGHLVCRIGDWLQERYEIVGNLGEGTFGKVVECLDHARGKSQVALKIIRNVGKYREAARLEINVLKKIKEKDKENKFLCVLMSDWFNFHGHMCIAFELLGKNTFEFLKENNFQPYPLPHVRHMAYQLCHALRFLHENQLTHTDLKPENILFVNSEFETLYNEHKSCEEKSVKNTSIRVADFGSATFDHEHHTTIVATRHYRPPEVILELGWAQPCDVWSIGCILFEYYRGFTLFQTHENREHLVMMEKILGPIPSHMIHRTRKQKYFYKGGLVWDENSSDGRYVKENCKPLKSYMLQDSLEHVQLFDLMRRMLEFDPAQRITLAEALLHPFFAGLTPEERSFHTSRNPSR
How it was run: as §1

266 human kinases [4] = molecular target: 266 human kinases (Homo sapiens, UniProt P53779); conditions: JNK3(h); 100 μM
266 human kinases (Homo sapiens, UniProt P53779), sequence (P53779 whole entry): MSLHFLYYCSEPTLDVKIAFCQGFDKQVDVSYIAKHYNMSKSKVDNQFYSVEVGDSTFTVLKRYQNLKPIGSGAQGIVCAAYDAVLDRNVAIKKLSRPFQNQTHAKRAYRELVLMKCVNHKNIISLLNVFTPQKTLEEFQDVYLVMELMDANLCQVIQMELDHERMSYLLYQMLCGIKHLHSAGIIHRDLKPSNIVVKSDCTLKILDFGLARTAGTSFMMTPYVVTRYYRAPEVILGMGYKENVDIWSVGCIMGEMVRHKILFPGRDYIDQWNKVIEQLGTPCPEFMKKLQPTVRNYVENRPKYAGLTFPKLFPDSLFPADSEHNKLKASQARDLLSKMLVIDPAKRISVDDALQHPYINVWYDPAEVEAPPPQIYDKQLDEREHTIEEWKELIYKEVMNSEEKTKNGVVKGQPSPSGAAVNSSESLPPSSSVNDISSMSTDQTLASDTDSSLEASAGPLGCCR
How it was run: as §1

266 human kinases [5] = molecular target: T1, 266 human kinases (Homo sapiens, UniProt P54760); conditions: EphB4(h); 100 μM
T1 sequence (P54760 16-987): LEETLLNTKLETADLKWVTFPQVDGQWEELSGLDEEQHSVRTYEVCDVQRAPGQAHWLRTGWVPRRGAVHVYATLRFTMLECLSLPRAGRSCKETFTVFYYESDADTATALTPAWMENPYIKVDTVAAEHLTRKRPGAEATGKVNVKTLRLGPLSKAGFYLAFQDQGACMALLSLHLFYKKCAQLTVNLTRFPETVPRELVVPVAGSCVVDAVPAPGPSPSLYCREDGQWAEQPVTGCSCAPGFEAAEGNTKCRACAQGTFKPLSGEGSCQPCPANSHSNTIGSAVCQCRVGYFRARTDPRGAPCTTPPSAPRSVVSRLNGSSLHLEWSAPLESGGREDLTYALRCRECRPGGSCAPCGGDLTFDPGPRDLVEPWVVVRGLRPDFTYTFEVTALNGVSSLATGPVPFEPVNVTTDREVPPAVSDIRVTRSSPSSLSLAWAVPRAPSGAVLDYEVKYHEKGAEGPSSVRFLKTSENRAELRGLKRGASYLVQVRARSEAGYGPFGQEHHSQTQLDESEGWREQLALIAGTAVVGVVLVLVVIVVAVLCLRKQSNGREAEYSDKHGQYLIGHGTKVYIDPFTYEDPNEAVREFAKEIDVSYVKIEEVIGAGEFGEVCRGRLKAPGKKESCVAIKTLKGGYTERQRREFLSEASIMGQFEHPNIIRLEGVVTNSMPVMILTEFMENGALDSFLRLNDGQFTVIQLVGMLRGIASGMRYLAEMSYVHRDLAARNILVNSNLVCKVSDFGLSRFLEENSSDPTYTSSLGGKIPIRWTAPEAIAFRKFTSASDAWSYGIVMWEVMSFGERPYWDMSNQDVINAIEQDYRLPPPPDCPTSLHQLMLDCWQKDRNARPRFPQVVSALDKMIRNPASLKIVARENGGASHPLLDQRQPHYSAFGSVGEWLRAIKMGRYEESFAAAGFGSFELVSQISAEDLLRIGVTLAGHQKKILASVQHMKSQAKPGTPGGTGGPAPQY
How it was run: as §1

266 human kinases [6] = molecular target: 266 human kinases (Homo sapiens, UniProt Q00534); conditions: CDK6/cyclinD3(h); 100 μM
266 human kinases (Homo sapiens, UniProt Q00534), sequence (Q00534 whole entry): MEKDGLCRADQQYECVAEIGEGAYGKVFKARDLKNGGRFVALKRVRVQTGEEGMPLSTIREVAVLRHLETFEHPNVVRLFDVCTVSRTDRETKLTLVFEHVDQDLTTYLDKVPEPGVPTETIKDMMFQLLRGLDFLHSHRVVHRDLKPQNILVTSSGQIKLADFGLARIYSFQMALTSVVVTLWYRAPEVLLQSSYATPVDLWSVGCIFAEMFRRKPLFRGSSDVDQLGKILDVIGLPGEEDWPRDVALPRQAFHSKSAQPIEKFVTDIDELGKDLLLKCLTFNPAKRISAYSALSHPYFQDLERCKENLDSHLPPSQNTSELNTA
How it was run: as §1

266 human kinases [7] = molecular target: 266 human kinases (Homo sapiens, UniProt Q00535); conditions: 100 μM
266 human kinases (Homo sapiens, UniProt Q00535), sequence (Q00535 whole entry): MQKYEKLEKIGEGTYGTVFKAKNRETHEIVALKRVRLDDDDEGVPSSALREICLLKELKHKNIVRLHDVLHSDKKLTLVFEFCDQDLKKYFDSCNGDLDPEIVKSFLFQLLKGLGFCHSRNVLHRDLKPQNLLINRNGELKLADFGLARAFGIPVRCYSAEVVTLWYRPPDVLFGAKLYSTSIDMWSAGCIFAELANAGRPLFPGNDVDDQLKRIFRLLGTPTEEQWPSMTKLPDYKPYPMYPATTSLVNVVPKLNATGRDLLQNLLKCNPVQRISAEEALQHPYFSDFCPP
How it was run: as §1

266 human kinases [8] = molecular target: 266 human kinases (Homo sapiens, UniProt Q13554); conditions: CaMKIIβ(h); 100 μM
266 human kinases (Homo sapiens, UniProt Q13554), sequence (Q13554 whole entry): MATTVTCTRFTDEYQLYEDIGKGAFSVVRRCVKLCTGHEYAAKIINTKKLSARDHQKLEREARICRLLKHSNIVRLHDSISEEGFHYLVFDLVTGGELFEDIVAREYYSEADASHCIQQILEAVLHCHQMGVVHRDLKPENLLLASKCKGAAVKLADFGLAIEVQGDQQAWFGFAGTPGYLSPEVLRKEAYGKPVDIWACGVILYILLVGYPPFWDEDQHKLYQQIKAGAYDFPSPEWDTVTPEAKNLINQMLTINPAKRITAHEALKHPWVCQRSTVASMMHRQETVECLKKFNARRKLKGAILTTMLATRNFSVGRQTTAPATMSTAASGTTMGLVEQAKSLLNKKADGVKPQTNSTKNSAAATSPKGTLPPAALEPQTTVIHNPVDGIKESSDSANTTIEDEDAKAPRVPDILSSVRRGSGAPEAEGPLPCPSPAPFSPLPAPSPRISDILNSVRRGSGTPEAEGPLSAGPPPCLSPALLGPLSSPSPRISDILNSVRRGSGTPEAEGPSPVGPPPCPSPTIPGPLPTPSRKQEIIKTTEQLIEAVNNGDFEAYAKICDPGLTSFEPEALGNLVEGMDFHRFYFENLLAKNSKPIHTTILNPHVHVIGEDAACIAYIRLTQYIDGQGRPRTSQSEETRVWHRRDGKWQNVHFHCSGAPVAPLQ
How it was run: as §1

266 human kinases [9] = molecular target: 266 human kinases (Homo sapiens, UniProt Q15303); conditions: ErbB4(h); 100 μM
266 human kinases (Homo sapiens, UniProt Q15303), sequence (Q15303 26-1308): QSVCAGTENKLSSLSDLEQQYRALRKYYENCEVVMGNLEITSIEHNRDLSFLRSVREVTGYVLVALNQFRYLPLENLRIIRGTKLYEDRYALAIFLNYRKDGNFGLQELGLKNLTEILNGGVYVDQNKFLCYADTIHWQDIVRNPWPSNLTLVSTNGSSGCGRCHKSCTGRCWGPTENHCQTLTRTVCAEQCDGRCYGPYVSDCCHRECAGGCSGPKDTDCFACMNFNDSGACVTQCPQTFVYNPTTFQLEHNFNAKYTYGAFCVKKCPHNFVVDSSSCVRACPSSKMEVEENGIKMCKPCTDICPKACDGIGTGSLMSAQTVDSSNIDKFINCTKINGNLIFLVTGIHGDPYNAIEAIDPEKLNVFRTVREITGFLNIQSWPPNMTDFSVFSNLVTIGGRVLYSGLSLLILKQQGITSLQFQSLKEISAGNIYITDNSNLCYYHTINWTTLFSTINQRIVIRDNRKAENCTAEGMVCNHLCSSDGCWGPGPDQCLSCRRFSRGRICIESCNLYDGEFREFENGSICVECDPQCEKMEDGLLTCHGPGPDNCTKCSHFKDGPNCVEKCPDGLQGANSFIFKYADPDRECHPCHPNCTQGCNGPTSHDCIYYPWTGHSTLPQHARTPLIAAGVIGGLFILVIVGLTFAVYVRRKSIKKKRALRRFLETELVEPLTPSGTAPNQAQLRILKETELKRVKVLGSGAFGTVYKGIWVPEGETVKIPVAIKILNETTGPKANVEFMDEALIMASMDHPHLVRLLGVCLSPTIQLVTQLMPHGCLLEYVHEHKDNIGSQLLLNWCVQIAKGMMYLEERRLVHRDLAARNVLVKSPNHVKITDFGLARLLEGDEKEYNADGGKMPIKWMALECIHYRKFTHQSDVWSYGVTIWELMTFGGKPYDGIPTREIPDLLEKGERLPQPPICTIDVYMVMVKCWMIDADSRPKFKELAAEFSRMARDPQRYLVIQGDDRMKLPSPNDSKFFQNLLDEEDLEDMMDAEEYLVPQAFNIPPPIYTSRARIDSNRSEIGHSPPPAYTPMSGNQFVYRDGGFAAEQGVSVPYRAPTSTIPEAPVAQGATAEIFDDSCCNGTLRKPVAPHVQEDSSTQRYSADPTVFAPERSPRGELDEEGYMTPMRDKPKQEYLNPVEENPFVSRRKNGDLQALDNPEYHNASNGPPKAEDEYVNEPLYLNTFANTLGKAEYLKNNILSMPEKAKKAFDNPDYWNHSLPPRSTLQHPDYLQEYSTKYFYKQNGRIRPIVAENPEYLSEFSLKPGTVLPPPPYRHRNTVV
How it was run: as §1

266 human kinases [10] = molecular target: T2, 266 human kinases (Homo sapiens, UniProt Q9UHD2); conditions: TBK1(h); 100 μM
T2 sequence (Q9UHD2 1-729): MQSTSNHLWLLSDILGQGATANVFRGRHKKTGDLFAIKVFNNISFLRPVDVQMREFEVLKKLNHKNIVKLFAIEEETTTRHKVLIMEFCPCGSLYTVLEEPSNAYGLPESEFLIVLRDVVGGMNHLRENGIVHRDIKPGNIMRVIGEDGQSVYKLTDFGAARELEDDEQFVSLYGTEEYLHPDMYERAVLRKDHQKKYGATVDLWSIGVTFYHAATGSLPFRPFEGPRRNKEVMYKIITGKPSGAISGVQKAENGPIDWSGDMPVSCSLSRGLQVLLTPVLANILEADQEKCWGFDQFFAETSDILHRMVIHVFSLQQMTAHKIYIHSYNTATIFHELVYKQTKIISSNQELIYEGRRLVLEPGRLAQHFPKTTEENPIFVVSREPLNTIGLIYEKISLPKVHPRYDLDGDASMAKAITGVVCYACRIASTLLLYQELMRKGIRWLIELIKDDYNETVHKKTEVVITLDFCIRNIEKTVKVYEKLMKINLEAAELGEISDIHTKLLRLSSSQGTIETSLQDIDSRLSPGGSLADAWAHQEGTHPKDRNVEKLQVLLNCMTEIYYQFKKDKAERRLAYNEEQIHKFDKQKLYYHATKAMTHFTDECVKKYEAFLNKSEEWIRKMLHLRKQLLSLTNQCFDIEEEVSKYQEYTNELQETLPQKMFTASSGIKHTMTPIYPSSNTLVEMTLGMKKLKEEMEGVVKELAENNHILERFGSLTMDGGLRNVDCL
How it was run: as §1

266 human kinases (Homo sapiens, UniProt O15530), sequence (O15530 whole entry): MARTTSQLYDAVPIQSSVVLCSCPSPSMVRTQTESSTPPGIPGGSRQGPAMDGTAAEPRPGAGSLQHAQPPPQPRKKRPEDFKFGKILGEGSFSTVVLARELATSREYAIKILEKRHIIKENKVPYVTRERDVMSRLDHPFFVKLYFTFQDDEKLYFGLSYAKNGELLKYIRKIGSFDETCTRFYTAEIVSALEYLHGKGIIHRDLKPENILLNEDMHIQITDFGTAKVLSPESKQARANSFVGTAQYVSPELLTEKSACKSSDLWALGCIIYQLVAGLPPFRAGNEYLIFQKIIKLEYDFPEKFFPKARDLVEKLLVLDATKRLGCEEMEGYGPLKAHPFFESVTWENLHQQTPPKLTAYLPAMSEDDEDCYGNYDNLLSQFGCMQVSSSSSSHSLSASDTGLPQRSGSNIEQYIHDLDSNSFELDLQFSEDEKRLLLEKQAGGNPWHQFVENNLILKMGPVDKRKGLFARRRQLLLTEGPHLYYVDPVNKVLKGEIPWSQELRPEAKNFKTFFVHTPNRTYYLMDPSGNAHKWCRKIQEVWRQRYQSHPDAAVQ

Sequence	% activity (266 human kinases [1])	% activity (266 human kinases [2])	% activity (266 human kinases [3])	% activity (266 human kinases [4])	% activity (266 human kinases [5])	% activity (266 human kinases [6])	% activity (266 human kinases [7]; CDK5/p25(h))	% activity (266 human kinases [7]; CDK5/p35(h))	% activity (266 human kinases [8])	% activity (266 human kinases [9])	% activity (266 human kinases [10])
HRRIKAWLKKIKALARQLGVAA (mammal) [MMI-0500]	178%	150%	76%	171%	38%	23%	66%	59%	3%	2%	16%
YARAAARQARAKALNRQLGVA (mammal) [MMI-0200]	143%	86%	76%	90%	131%	100%	97%	92%	53%	82%	98%
